{"source": "paper PMC3211139", "about": "(Molecular microbiology, 2011)", "biological_target": "the molecule itself", "test": "native gel or EMSA", "note": "Where “and” joins values, the source holds several entries; their conditions need not be identical. Equal entries are not always repeated."}
{"protein": "AtxA-His (natural protein) MLTPISIEKEHIRLINLLHFINEQNRWFTIKELSDYLQVADKTVRKYLKLLEDEIPPSWNLLVQKGKGIYLKKPLNESLSFVESKILRKSLNLQICEELVFKKNSMQSLAQKLHLQVGALYPIINQINYDIQSSHLNIKKKPLEISGREQDVRVFMLRLYCNIPNDYWPFPYINKQNITDLINKMEKILNVQMYTYSKHKLCVLFAITISRLLSGNTIDNVSGLILVNKNDDHYKTVASITSELQNSFGVTLHETEISFLALALLLSLGNSITTDSNKTLTSYKKTIMPLAKEITKGIEHKLQLGINYDESFLTYVVLIIKKALDKNFIQYYNYNIKFIRHIKQRHPNTFNTIQECISNLNYTVYSHFDCYEISLLTMHFETQRMLFKNNPKKIYVYTSQGCIHREYISALLEKRYNGLIKIVRNTIINLTNESLQDMEIDIIISNVNLPIKNIPIVQISEFPTERDFHEIKKII", "values": [{"measurement": "stoichiometry N", "result": "2 and 4"}]}
